Results: patent publication US20220332804A1 (CSL INNOVATION, published 2022)
Numbering of substitutions follows the chain as printed.

Key:
Experiment in all cases: SPR, antibody captured, C2 as analyte;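 note: biacore SPR at 37 °C, anti-C2 mAbs captured via goat anti-human IgG on CM5 chips, double-referenced sensorgrams fit to a 1:1 kinetic or steady-state model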
[1] = target: T1, human C2 Y558A (human, UniProt P06681 21-752)
T1 sequence: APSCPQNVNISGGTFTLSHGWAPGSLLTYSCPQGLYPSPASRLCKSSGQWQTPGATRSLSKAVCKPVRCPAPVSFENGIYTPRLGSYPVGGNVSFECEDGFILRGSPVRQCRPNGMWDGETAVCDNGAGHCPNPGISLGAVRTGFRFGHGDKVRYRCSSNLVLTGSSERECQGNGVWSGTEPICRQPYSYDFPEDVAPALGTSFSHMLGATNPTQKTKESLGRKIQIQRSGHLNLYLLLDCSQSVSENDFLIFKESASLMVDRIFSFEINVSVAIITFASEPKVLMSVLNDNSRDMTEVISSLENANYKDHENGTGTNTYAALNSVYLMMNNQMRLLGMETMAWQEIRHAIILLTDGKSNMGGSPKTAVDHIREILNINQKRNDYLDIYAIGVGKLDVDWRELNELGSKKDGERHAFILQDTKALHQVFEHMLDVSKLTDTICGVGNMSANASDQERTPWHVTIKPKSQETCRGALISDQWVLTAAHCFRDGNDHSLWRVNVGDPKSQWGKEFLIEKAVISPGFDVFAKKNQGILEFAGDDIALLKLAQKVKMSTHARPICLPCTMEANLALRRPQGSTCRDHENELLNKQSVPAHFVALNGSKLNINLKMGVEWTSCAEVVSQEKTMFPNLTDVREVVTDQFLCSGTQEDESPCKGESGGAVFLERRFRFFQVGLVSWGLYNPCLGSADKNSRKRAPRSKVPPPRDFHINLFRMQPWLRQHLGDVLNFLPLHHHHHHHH

[2] = target: T2, human C2 V418A (human, UniProt P06681 21-752)
T2 sequence: T1 sequence with V398A, A538Y

[3] = target: T3, human C2 E450A (human, UniProt P06681 21-752)
T3 sequence: T1 sequence with E430A, A538Y

[4] = target: T4, human C2 Q489A (human, UniProt P06681 21-752)
T4 sequence: T1 sequence with Q469A, A538Y

B1: RF16-226 (antibody, human IgG4 S228P, lambda)
heavy: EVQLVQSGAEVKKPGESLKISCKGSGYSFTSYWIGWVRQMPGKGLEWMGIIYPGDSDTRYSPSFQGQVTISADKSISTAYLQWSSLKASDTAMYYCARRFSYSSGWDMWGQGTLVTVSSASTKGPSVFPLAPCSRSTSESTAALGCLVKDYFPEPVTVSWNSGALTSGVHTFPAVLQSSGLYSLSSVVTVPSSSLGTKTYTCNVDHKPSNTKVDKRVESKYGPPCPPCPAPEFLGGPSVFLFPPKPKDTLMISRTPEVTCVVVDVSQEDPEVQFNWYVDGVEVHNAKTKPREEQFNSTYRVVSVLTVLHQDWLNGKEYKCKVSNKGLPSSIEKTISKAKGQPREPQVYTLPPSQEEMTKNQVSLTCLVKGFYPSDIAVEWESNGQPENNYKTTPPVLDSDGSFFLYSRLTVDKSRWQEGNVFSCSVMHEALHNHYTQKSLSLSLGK
light: SYELTQPPSVSVSPGQTARITCSGDALTSKYVAWYQQKSGLAPLLVIYEDTRRPSGIPAKFSGSSSGSVATLTISGAHGDDEADYYCYSTDASGHQRVFGGGTKLTVLSQPKAAPSVTLFPPSSEELQANKATLVCLISDFYPGAVTVAWKADGSPVKAGVETTKPSKQSNNKYAASSYLSLTPEQWKSHRSYSCQVTHEGSTVEKTVAPTECS
notes: pH-dependent anti-C2 antibody from a phage display library; also called WT
[1]
  Kd: 158 nM
[2]
  Kd: 8 nM
[3]
  Kd: 4.2 nM
[4]
  Kd: 104 nM
